As usually defined, the Kd is a measure of binding affinity in units of concentration. Low readings indicate tighter binding, high ones weaker binding.

In one assay the target is tissue factor (TF) extracellular domains (UniProt P13726). Put plainly: SPR, TF on chip.
Settings: not given
Target sequence in this assay (P13726 33-251 limits assumed): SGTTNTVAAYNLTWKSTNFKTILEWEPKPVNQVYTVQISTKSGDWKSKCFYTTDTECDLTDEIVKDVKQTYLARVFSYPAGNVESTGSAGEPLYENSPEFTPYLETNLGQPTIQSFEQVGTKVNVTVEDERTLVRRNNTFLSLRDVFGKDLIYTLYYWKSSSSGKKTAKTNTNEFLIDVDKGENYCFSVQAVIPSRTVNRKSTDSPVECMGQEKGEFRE
In the case of “D3H44 Fab H:D146G_Q179K L:Q124E_Q160E_T180E”, the Kd turned out to be 24 pM.

Consider “D3H44 Fab H:D146G_Q179R L:Q124E_Q160E_T178D”, for which the Kd came out at 82 pM.

In the case of D3H44 Fab H:F174V_P175S_S188G L:S176L, the Kd is 40 pM.

On to “D3H44 Fab H:K145T_Q179D_S188F L:V133A_Q160K_T178R”, for which the Kd came out at 86 pM.

The substance “D3H44 Fab H:K145T_Q179D_S188L L:Q160K_T178R” gave a Kd of 71 pM.

In turn, “D3H44 Fab H:L143A_D146G_Q179R L:Q124E_V133W_Q160E_T180E” yielded a dissociation constant (Kd) of 87 pM.

For the substance D3H44 Fab H:L143E_K145T L:Q160K_T178R, the dissociation constant (Kd) amounted to 60 pM.

The substance “D3H44 Fab H:Q39D_A139G_V190A L:Q38R_L135W” showed a Kd of 25 pM. Against the preceding substance, the Kd is about 2.4-fold lower.

The substance D3H44 Fab H:S188L_V190Y L:V133S gave a Kd of 43 pM.

“D3H44 WT Fab with FLAG-tagged light chain” came in with a Kd of 62.2 pM.

With D3H44 WT Fab with HA-tagged light chain, the Kd stood at 52.2 pM.

For another assay the target is unchanged.
Experiment: not given
Conditions: Fab.
Target sequence in this assay (P13726 33-251): as the sequence (P13726 33-251 limits assumed) above
Consider D3H44 Fab H:V37W L:F98A, for which the Kd worked out at 977 pM. In other words, the sub-nanomolar range.

For another assay the target is unchanged. In words: SPR, TF on chip.
Settings: not given
The source holds these as a separate data set. (In general: In SPR one partner is held on a chip, and binding of the other changes the refractive index at the surface.)
Target sequence in this assay (P13726 33-251 limits assumed): as above
As for D3H44 Fab H:A139G_V190A L:L135W, the Kd amounted to 58.6 pM.

With D3H44 Fab H:A139I L:F118W_V133S, the Kd was 52 pM. This Kd and that of the substance before are within 1.5-fold of each other.

“D3H44 Fab H:A139I_K145T_D146G_Q179E_S188G_V190S L:F116A_V133G_S176F_T178A” registered a Kd of 40.6 pM.

On to “D3H44 Fab H:D146G_Q179K L:Q124E_Q160E_T178D”, for which the Kd was 52.5 pM.

As to “D3H44 Fab H:D146G_Q179K L:Q124E_Q160E_T180E”, the Kd is 24.5 pM.

Substance “D3H44 Fab H:D146G_Q179K L:Q124E_V133W_Q160E_T180E” gave a Kd of 82.8 pM.

“D3H44 Fab H:D146G_Q179R L:Q124E_Q160E_T178D” displayed a Kd of 81.6 pM. The Kd values of the last two substances are within 1.5-fold of each other.

As to “D3H44 Fab H:D146G_Q179R L:Q124E_Q160E_T180E”, the equilibrium dissociation constant (Kd) amounted to 78 pM.

In the case of “D3H44 Fab H:D146G_Q179R L:Q124E_V133W_Q160E_T180E”, the Kd stood at 63.1 pM.

In turn, “D3H44 Fab H:D146G_S186R L:Q124E_Q160E_T178D” yielded a Kd of 51.1 pM.

Substance “D3H44 Fab H:D146G_S186R L:Q124E_Q160E_T180E” gave a Kd of 67.1 pM.

The substance D3H44 Fab H:F100M_W103V L:P44W_L89W had a Kd of 1540 pM.

In turn, D3H44 Fab H:F174G_S188A L:WT gave a Kd of 79.2 pM.

In the case of D3H44 Fab H:F174V_P175S_S188G L:S176L, the equilibrium dissociation constant (Kd) was determined as 39.9 pM.

Substance D3H44 Fab H:F174V_S188L L:S176G gave a Kd of 94.9 pM. Compared with the last substance, the Kd is about 2.4-fold higher.

D3H44 Fab H:F174V_S188L L:V133S returned a Kd of 20.1 pM.

The substance D3H44 Fab H:F174V_S188L L:WT came in with a Kd of 37.7 pM. This Kd lies about 1.9-fold higher than the previous one.

Take D3H44 Fab H:F174W_S188L L:S176G: the Kd turned out to be 15.5 pM. This Kd lies about 2.4-fold lower than the previous one.

For the substance D3H44 Fab H:F174W_S188L L:V133S, the Kd was found to be 17.2 pM.

Take D3H44 Fab H:F174W_S188L L:WT: the Kd worked out at 27.1 pM.

With “D3H44 Fab H:K145E_D146G_Q179D_S188F L:V133A_Q160K_T178R”, the Kd is 21.9 pM.

“D3H44 Fab H:K145E_D146G_Q179D_S188L L:Q160K_T178R” had a Kd of 41.5 pM.

For the substance D3H44 Fab H:K145L_Q179E L:S131K, the dissociation constant (Kd) is 66 pM.

In the case of “D3H44 Fab H:K145T_Q179D_S188F L:Q160K_T178R”, the Kd amounted to 111 pM.

For “D3H44 Fab H:K145T_Q179D_S188F L:V133A_Q160K_T178R”, the Kd turned out to be 85.6 pM.

In turn, “D3H44 Fab H:K145T_Q179D_S188L L:Q160K_T178R” registered a Kd of 70.5 pM.

For the substance “D3H44 Fab H:K145T_Q179D_S188L L:V133A_Q160K_T178R”, the Kd was 42.3 pM.

Take D3H44 Fab H:L45W L:Y87G: the Kd was found to be 197 pM. This Kd is about 4.7-fold higher than that of the substance before.

As to “D3H44 Fab H:L143A_D146G_Q179R L:Q124E_V133W_Q160E_T180E”, the equilibrium dissociation constant (Kd) was found to be 87.1 pM. Compared with the last substance, the Kd is about 2.3-fold lower.

D3H44 Fab H:L143E_K145T L:Q124R gave a dissociation constant (Kd) of 59.6 pM. This Kd and that of the substance before are within 1.5-fold of each other.

“D3H44 Fab H:L143E_K145T L:Q124R_Q160K_T178R” gave a Kd of 76.9 pM.

The substance D3H44 Fab H:L143E_K145T L:Q160K_T178R had a Kd of 23.6 pM.

In turn, D3H44 Fab H:L143K_D146G L:Q124E_V133D displayed a Kd of 24.3 pM.

For D3H44 Fab H:Q39D L:Q38R_F98W, the Kd was found to be 127 pM.

On to “D3H44 Fab H:Q39D_A139G_V190A L:Q38R_L135W”, for which the Kd came to 117 pM.

As to D3H44 Fab H:Q39E L:Q38N_T85K, the Kd was 20.1 pM.

Take D3H44 Fab H:Q39E L:Q38N_T85K_F98W: the Kd was found to be 34.8 pM. Against the preceding substance, the Kd is about 1.7-fold higher.

Regarding D3H44 Fab H:Q39E L:Q38R_F98W, the Kd was determined as 163 pM. This Kd lies about 4.7-fold higher than the previous one.

As for D3H44 Fab H:Q39K L:Q38N_T85E, the Kd is 21.3 pM.

D3H44 Fab H:Q39K L:Q38N_T85E_F98W gave a dissociation constant (Kd) of 13.4 pM.

As for D3H44 Fab H:Q39M L:Q38M, the Kd came out at 27.3 pM.

Regarding D3H44 Fab H:Q39R L:Q38D, the Kd was 22.9 pM. This Kd and that of the substance before are within 1.5-fold of each other.

The substance D3H44 Fab H:Q39R L:Q38D_F98W showed a Kd of 127 pM.

Substance D3H44 Fab H:Q39R L:Q38E_F98W displayed a Kd of 178 pM. This Kd and that of the substance before are within 1.5-fold of each other.

Substance “D3H44 Fab H:S186K_S188H_V190G L:F118W_Q124E_V133S_S176A_T178S_T180E” had a Kd of 61.5 pM.

Regarding D3H44 Fab H:S186R L:Q124E_Q160E_T178D, the Kd came out at 125 pM.

As for D3H44 Fab H:S188L L:S176G, the Kd stood at 86.6 pM.

Turning to D3H44 Fab H:S188L L:V133S, the dissociation constant Kd was 14.4 pM.

On to D3H44 Fab H:S188L L:WT, for which the Kd turned out to be 34.2 pM. Against the preceding substance, the Kd is about 2.4-fold higher.

Consider D3H44 Fab H:S188L_V190Y L:V133S, for which the Kd is 42.8 pM.

Turning to “D3H44 Fab H:V37A_Q39E_W103V L:Q38N_P44W_T85K”, the Kd stood at 550 pM.

In the case of “D3H44 Fab H:V37A_Q39K_W103H L:Q38N_P44W_T85E”, the Kd came out at 832 pM.

Take D3H44 Fab H:V37A_Q39R_W103V L:Q38E_P44W: the Kd turned out to be 977 pM.

As to D3H44 Fab H:V37E L:L89R_F98T, the Kd was 2410 pM.

For D3H44 Fab H:V37I_Q39D L:Q38R_F98W, the Kd came out at 177 pM. Against the preceding substance, the Kd is about 14-fold lower.

D3H44 Fab H:V37I_Q39E L:Q38N_T85K came in with a Kd of 18.2 pM.

Regarding D3H44 Fab H:V37I_Q39E L:Q38N_T85K_F98W, the Kd stood at 125 pM.

As for D3H44 Fab H:V37I_Q39E L:Q38R_F98W, the Kd worked out at 72.9 pM.

Substance D3H44 Fab H:V37I_Q39R L:Q38D_F98W showed a Kd of 101 pM.

In turn, D3H44 Fab H:V37I_Q39R L:Q38E showed a dissociation constant (Kd) of 123 pM.

On to D3H44 Fab H:V37I_Q39R L:Q38E_F98W, for which the Kd came to 144 pM.

Substance D3H44 Fab H:V37I_W103H L:P44W_F98W displayed a Kd of 240 pM.

Turning to D3H44 Fab H:V37S_A93K L:F98Y, the Kd was 420 pM. This Kd is about 1.8-fold higher than that of the substance before.

Turning to D3H44 Fab H:V37T_A93Q_W103T L:P44W_F98W, the Kd stood at 1330 pM.

Turning to D3H44 Fab H:V37T_A93Q_W103V L:P44W_F98W, the Kd was 192 pM.

D3H44 Fab H:V37W L:F98A returned a Kd of 3440 pM.

D3H44 Fab H:V37W_A93V L:F98A: the equilibrium dissociation constant (Kd) was found to be 697 pM.

The substance D3H44 Fab H:V37W_F100W_W103L L:F98A had a Kd of 1220 pM. This Kd is about 1.8-fold higher than that of the substance before.

On to D3H44 Fab H:V37W_Q39D L:Q38R_F98A, for which the Kd stood at 1730 pM.

Substance D3H44 Fab H:V37W_Q39D_W103F L:Q38R_F98L showed a Kd of 924 pM. This Kd is about 1.9-fold lower than that of the substance before.

D3H44 Fab H:V37W_Q39D_W103H L:Q38R_F98L had an equilibrium dissociation constant (Kd) of 7890 pM.

Turning to D3H44 Fab H:V37W_Q39E L:Q38N_T85K_F98A, the Kd was 861 pM. Compared with the last substance, the Kd is about 9.2-fold lower.

In turn, D3H44 Fab H:V37W_Q39E L:Q38R_F98A had a Kd of 902 pM.

For the substance “D3H44 Fab H:V37W_Q39E_W103F L:Q38N_T85K_F98L”, the Kd worked out at 2510 pM.

Substance D3H44 Fab H:V37W_Q39E_W103F L:Q38R_F98L showed a Kd of 172 pM.

With D3H44 Fab H:V37W_Q39K L:Q38N_T85E_F98A, the dissociation constant Kd stood at 1780 pM.

“D3H44 Fab H:V37W_Q39K_W103F L:Q38N_T85E_F98L” yielded a Kd of 984 pM.

For D3H44 Fab H:V37W_Q39R L:Q38E_F98A, the Kd is 3180 pM. Compared with the last substance, the Kd is about 3.2-fold higher.

As to D3H44 Fab H:V37W_Q39R_W103F L:Q38E_F98L, the Kd came out at 1110 pM. This Kd is about 2.9-fold lower than that of the substance before.

As to D3H44 Fab H:V37W_Q39R_W103H L:Q38D_F98L, the Kd stood at 5620 pM.

With D3H44 Fab H:V37W_Q39R_W103H L:Q38E_F98L, the Kd amounted to 2990 pM.

D3H44 Fab H:V37W_W103F L:F98L returned a dissociation constant Kd of 955 pM.

On to D3H44 Fab H:W103H L:P44W_F98W, for which the Kd was 212 pM.

D3H44 Fab H:W103H L:P44W_L89W_F98A returned a dissociation constant Kd of 3400 pM.

For D3H44 Fab H:W103V L:P44W_F98W, the Kd worked out at 174 pM. Compared with the last substance, the Kd is about 20-fold lower.

Turning to D3H44 Fab H:W103V L:P44W_L89W_F98A, the Kd turned out to be 4120 pM.

For the substance D3H44 Fab H:WT L:F98W, the Kd came out at 10.9 pM. This Kd lies about 380-fold lower than the previous one.

D3H44 Fab H:WT L:L89F_F98W returned a Kd of 239 pM. Against the preceding substance, the Kd is about 22-fold higher.

Regarding Wild-type anti-TF D3H44 Fab, the Kd was found to be 56 pM. Against the preceding substance, the Kd is about 4.3-fold lower.

(Values after patent US20220227840A1.)
